Measurements reported in article PMC11882435, “Thermodynamic modeling of RsmA - mRNA interactions capture novel direct binding across the Pseudomonas aeruginosa transcriptome”.

Molecular target: RsmA (Pseudomonas aeruginosa, UniProt O69078 1-61)
Test: filter binding; affinity unchanged vs WT; Filter binding: 10 mM Tris-HCl pH 7.5, 100 mM KCl, 10 mM MgCl2, 10 mM DTT, 10 ug/mL heparin, RNase inhibitor, 0.5 nM RNA, 37 C 30 min; Hill coefficient 2
Details: protein: recombinant; expressed in E. coli BL21; chain copies: 2; label: 5'-32P

RsmA, sequence (O69078 whole entry): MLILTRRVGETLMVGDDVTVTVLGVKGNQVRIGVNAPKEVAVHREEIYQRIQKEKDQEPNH

Binder | binding result
rsaL BS1 mutant (ssRNA) RNA: GGGAUAAUAAACGUCCGAAAAGAUCAGAGCAAUGGCUUCACACGAGAGAACACAGCCCCAAAACAUGGCCUUCCGGGCAAAGGCCACCCGCACCGCCCGCACUGAAAGCCAGGAAACUUUCUGGAGCCGCU | binds
rsaL BS2 mutant (ssRNA) RNA: GGGAUAAUAAACGUCCGAAAAGAUCAGAGCAAUGGCUUCACACGAGAGAACACAGCCCCAAAACAUGGCCUUCCGGGCAAAGGCCACCCGCACCGCCCGACGGGAAAGCCAUACAACUUUCUGGAGCCGCU | binds
mvaT BS1 mutant (ssRNA) RNA: GGGAUAAUACUUACAUGCCCGCCACCGCCACUCAGCACAGACAAGGUACCUGACAUGUCCCUGAUCAACGAAUAUCGCGCCCACACAGAAGCCAUCAAGGAACUUCAGGAGCGCCUGAAGUCCCUGGAACAAGACGACAAACUGAAAAAAGAAC | binds
mvaT BS2 mutant (ssRNA) RNA: GGGAUAAUACUUACAUGCCCGCCACCGCCACUCAGCACAGACAAGGUACCUGACAUGUCCCUGAUCAACGAAUAUCGCGCCACGGAAGAAGCCAUCCAAUUACUUCAGGAGCGCCUGAAGUCCCUGGAACAAGACGACAAACUGAAAAAAGAAC | binds
mvaT BS3 mutant (ssRNA) RNA: GGGAUAAUACUUACAUGCCCGCCACCGCCACUCAGCACAGACAAGGUACCUGACAUGUCCCUGAUCAACGAAUAUCGCGCCACGGAAGAAGCCAUCAAGGAACUUCAGGAGCGCCUGAAGUCCCUCUGACAAGACGACAAACUGAAAAAAGAAC | binds
